The target of this data set is SARS-CoV-2 spike S1 subunit (SARS-CoV-2, UniProt P0DTC2 13-685). The experiment in a line: phosphate buffer.

B1: CoV2-RBD-1C, MB/thiol-modified (structured_DNA)
DNA: CAGCACCGACCTTGTGCTTTGGGAGTGCTGGTCCAAGGGCGTTAATGGACA
modifications: 5' methylene blue; 3' thiol C3 (ThioMC3-D)
Turning to B1, the binding result is recorded as “binds”.

Source of the values: doi:10.1101/2020.11.14.20231811.
